The target in assay [1] is T1, recombinant human BMP-2 (human, UniProt P12643 283-396). Put plainly: cell-based or functional assay.
Assay [2] addresses T1, recombinant human BMP-2. Put plainly: SPR (Biacore X), rhBMP-2 on CM-5 chip, peptide at 1×10^-5 to 1×10^-4 M in solution. The protocol: Buffers and chips for the procedure were obtained from Biacore. […] This material was then attached to a CM-5 sensor chip using reagents and procedures supplied by the manufacturer. Running buffer was 10 mM HEPES, pH 7.4, 150 mM NaCl, 3 mM EDTA, 0.005% Surfactant P20. The peptide was dissolved in running buffer at concentrations ranging from 1×10⁻⁵ to 1×10⁻⁴ M. Flow rates from 5 to 50 μl/min and injection volumes of 20 to 100 μl were employed. The regeneration solution was […] glycine-HCl, pH 2.0.
A general note: In SPR one partner is held on a chip, and binding of the other changes the refractive index at the surface.

Positions of bridges follow the written chain, without caps; N, C: chain ends. No end group written: not given here.

What is called Kd is the concentration at which binding is half-saturated.

T1 sequence (P12643 283-396 limits assumed): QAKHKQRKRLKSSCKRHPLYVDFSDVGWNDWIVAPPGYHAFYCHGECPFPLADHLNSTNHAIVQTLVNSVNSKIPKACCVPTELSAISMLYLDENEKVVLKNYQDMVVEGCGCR

B1: cyclized BMP Binding Peptide (BBP), bovine (peptide)
peptide: CRSTVRMSAEQVQNVWVRC
modifications: disulfide 1-19 (inferred)
notes: Synthetic 19 amino acid cyclic peptide, 2.1 kD; Reduction with β-mercaptoethanol decyclizes it, which implies a disulfide; also called cyclized BBP
Turning to B1, the “retention of labeled rhBMP-2 on collagen sponges implanted in rodent muscle pouches (1, 3 and 7 days)” value in the assay with recombinant human BMP-2 [1] was approximately 2 fold. Further, in the assay with recombinant human BMP-2 [2], the dissociation constant (Kd) was found to be 30 µM.

Source of the values: patent publication US20130303449A1 (University of California, published 2013).
